In the assay the target is EGFP-tagged Rac1-Y64F (human), P63000. The assay can be described thus: co-IP; MEF co-transfected with an EGFP-Rac1 construct and Flag-βPIX, Myc-Tiam1 or Myc-RhoGDI; modified RIPA buffer; 800 µg lysate, anti-GFP antibody and protein A sepharose, 4 °C; blots with anti-Flag or anti-Myc, normalised to the precipitated EGFP-Rac1. The conditions noted are these: remark: other sources report otherwise.

B1: Myc-tagged RhoGDI, P52565 1-204 (natural protein)
chain: MAEQEPTAEQLAQIAAENEEDEHSVNYKPPAQKSIQEIQELDKDDESLRKYKEALLGRVAVSADPNVPNVVVTGLTLVCSSAPGPLELDLTGDLESFKKQSFVLKEGVEYRIKISFRVNREIVSGMKYIQHTYRKGVKIDKTDYMVGSYGPRAEEYEFLTPVEEAPKGMLARGSYSIKSRFTDDDKTDHLSWEWNLTIKKDWKD
Consider B1, for which the percent drop in binding against wild type was greater than 50%.
